Blank lines part the entries; values can stand above or below the binder they belong to.
Tests used:
[1] = molecular target: T1, PKCg 33-36 kDa proteolytic fragment (human); test: chemiluminescent capillary Western/ELISA on human plasma (stroke vs normal); signal at the ROC point
T1 construct: also called 32-36 kDa fragment
Procedure: (§1) The Sensitivity was calculated using (=SUM individual disease samples)/total of all disease samples). False Positives were calculated using the (=SUM each individual healthy sample/total of all healthy samples). Specificity is defined as (1-False Positives). This statistical method maximizes sensitivity and identifies the probability of false positives. The cut-off point for each ROC curve between healthy and disease samples was calculated and then related to the total chemiluminescence signal that is represented by those probabilities. The cut-off for each sample cohort stained with PKC11, PKC13, and PKC14 antibodies are represented by a line in each graph below.
(§2) Briefly, to conduct the chemiluminescent capillary ELISA in this example, reagents and individual plasma from Normal vs. TBI clinical samples were loaded into an automated Western blot machine (using the Auto-Western service from RayBiotech Life, Inc). In the first step, sample is loaded into the capillary automatically. Proteins are then separated by size as they electophoretically migrate through a stacking and separation matrix. The separated proteins are then immobilized on the capillary wall via a proprietary photoactivated capture chemistry. Target proteins, i.e., PKCg and/or PKCg proteolytic fragments were identified using a primary antibody, e.g., the rabbit monoclonal antibodies described herein, and immunoprobed with an HRP-conjugated secondary goat anti-rabbit IgG antibody and chemiluminescent substrate. An electropherogram is produced which plots the baseline, molecular weight and quantitative chemiluminescence signal of each peak. The quantitative signal was derived for each molecular weight band in every electropherogram. Each quantitative chemiluminescence signal was generated using the following formula; (C2-C1/C1), where C2 equals Area Under the Curve and C1 equals the baseline for that sample. This specific chemiluminescence measure was used in comparisons of all normal human plasma compared to TBI or stroke plasma samples after staining with antibodies, i.e., PKC11, PKC13, or PKC14. Statistical comparisons were made using GraphPad Prism 8 software. The resulting specific chemiluminescence signal was detected and quantitated, with sensitivity down in the picograms/ml range, providing a direct measure of TBI biomarkers, i.e., PKCg, and/or PKCg proteolytic fragments.

[2] = molecular target: T2, full-length human Protein Kinase C, gamma isoform (PKCg), 63-73 kDa (human, UniProt P05129 1-697); test: as above
T2 construct: also called PKCγ; full-length PKCg (63-73 kDa)
Procedure: as §1, §2

[3] = molecular target: PKCg 42-48 kDa proteolytic fragment (human); test: as above
Procedure: as §1, §2

[4] = molecular target: PKCg 53-60 kDa proteolytic fragment (human); test: as above
Procedure: as §1, §2

[5] = molecular target: higher molecular weight band at 95-105 kDa (human); test: as above
Procedure: as §1, §2

[6] = molecular target: PKCg 49-52 kDa proteolytic fragment (human); test: chemiluminescent capillary Western/ELISA on human plasma; 49-52 kDa band; signal at ROC cut-off
Procedure: as §1
as §2, with “Target proteins, i.e., PKCg and/or PKCg proteolytic fragments were identified using a primary antibody, e.g., the rabbit monoclonal antibodies described herein, and immunoprobed with an HRP-conjugated secondary goat anti-rabbit IgG antibody and chemiluminescent substrate.” left out, “This specific chemiluminescence measure was used in comparisons of all normal human plasma compared to TBI or stroke plasma samples after staining with antibodies, i.e., PKC11, PKC13, or PKC14. Statistical comparisons were made using GraphPad Prism 8 software.” left out

[7] = molecular target: PKCg 49-52 kDa proteolytic fragment (human); test: chemiluminescent capillary Western/ELISA on human plasma; 49-52 kDa band; sample signal at ROC cut-off
Procedure: as §1
as §2, with “Target proteins, i.e., PKCg and/or PKCg proteolytic fragments were identified using a primary antibody, e.g., the rabbit monoclonal antibodies described herein, and immunoprobed with an HRP-conjugated secondary goat anti-rabbit IgG antibody and chemiluminescent substrate.” left out, “This specific chemiluminescence measure was used in comparisons of all normal human plasma compared to TBI or stroke plasma samples after staining with antibodies, i.e., PKC11, PKC13, or PKC14. Statistical comparisons were made using GraphPad Prism 8 software.” left out

[8] = molecular target: T2, full-length human Protein Kinase C, …; test: conclusion; clones came from ELISA/MAPIA screening against PKCg
[9] = molecular target: PKCg 49-52 kDa proteolytic fragment (human); test: chemiluminescent capillary Western/ELISA on human plasma; 49-52 kDa band; normal plasma sample
Procedure: as §1
Briefly, to conduct the chemiluminescent capillary ELISA in this example, reagents and individual plasma from Normal vs. TBI clinical samples were loaded into an automated Western blot machine (using the Auto-Western service from RayBiotech Life, Inc). In the first step, sample is loaded into the capillary automatically. […] An electropherogram is produced which plots the baseline, molecular weight and quantitative chemiluminescence signal of each peak. The quantitative signal was derived for each molecular weight band in every electropherogram. Each quantitative chemiluminescence signal was generated using the following formula; (C2-C1/C1), where C2 equals Area Under the Curve and C1 equals the baseline for that sample. […]

B2: PKC13 (5H1/5K1) rabbit anti-PKCg monoclonal antibody (antibody, V domains shown)
VH: QEQLKESGGGLVTPGGTLTLTCTVSGFSLSSYAMSWVRQAPGKGLEWIGIIISGGSAYYATWAKGRFTISKTSTTVDLSITSPTTEDTATYFCARAKSGTYTGDYFTLWGQGTLVTVSS
VL: AFELTQTPASVEAAVGGTVTIKCQASESIGNALAWYQQKPGQPPKLLIYRASTLESGVPSRFKGSGSGTEFTLTISDLECADAATYYCQSYVGSRSTGYNVFGGGTEVVVK
notes: Rabbit IgG heavy chain and rabbit kappa light chain; Entries as printed seem to include a leader; no cleavage site is stated; also called mAb PKC13; PCK13
Signal Chemiluminescence [1]: 319 chemiluminescence units
Signal Chemiluminescence [3]: 2210 chemiluminescence units
Signal Chemiluminescence [4]: 3350 chemiluminescence units
chemiluminescence signal (ROC cut-off, stroke) [6]: 999 chemiluminescence units
chemiluminescence signal (ROC cut-off, TBI) [7]: 658 chemiluminescence units

B4: PKC11 (1H1/1K1) rabbit anti-PKCg monoclonal antibody (antibody, V domains shown)
VH: QSVEESGGRLVTPGTPLALTCTVSGFSLNYYAMNWVRQAPVKGLEWIGVITSDTTYYASWAKGRFTISKTSTTVELQITSPTTEDTATYFCASGGSTTSPALWGQGTLVTVSS
VL: AQVLTQTPSPVSAAVGSTVTINCQASQSVWSKNYLSWFQQKPGQPPKQLIYSASTLASGVPSRFSGSGSGTQFTLTISDVQCDDAATYYCLGSYDCRSADCWTFGGGTEVVVK
notes: Rabbit IgG heavy chain and rabbit kappa light chain; also called mAb PKC11
Signal Chemiluminescence [1]: 126 chemiluminescence units
Signal Chemiluminescence [2]: 1770 chemiluminescence units
Signal Chemiluminescence [3]: 637 chemiluminescence units
Signal Chemiluminescence [4]: 1540 chemiluminescence units
chemiluminescence signal (normal plasma sample, false positive) [9]: 630 chemiluminescence units
chemiluminescence signal (ROC cut-off, stroke) [6]: 797 chemiluminescence units
chemiluminescence signal (ROC cut-off, TBI) [7]: 710 chemiluminescence units

Now from value to binder:

Signal Chemiluminescence [1]: 230 chemiluminescence units
Signal Chemiluminescence [2]: 866 chemiluminescence units
Signal Chemiluminescence [3]: 633 chemiluminescence units
Signal Chemiluminescence [4]: 654 chemiluminescence units
Signal Chemiluminescence [5]: 443 chemiluminescence units
chemiluminescence signal (ROC cut-off, stroke) [6]: 257 chemiluminescence units
chemiluminescence signal (ROC cut-off, TBI) [7]: 299 chemiluminescence units
B1: PKC14 (7H1/7K3) rabbit anti-PKCg monoclonal antibody (antibody, V domains shown)
VH: QSLEESGGDLVQPGASLTLTCTASGFTLTTYWICWVRQAPGKGLEWVACILTGSGSTYYASWVNGRFTISKTSSTTVTLQMTSLTAADTATYFCARYGGDATYNENLWGQGTLVTVSS
VL: AQVLTQTPSSVSAAVGGTVTINCQASQSVYNNNRLSWYQQKPGQPPKRLIYGVSTLYYGVSSRFKGSGSGTQFTLTISGMQCDDAAIYYCLGGYDCASADCYAFGGGTEVVVK
notes: Rabbit IgG heavy chain and rabbit kappa light chain; Entries as printed seem to include a leader; no cleavage site is stated; also called mAb PKC14

binding result [8]: binds
B3: 4H1/4K1 rabbit anti-PKCg monoclonal antibody clone (antibody, V domains shown)
VH: QSVEESGGRLVTPGTPLTLTCTVSGFSLSLSRNAVSWVRQAPGKGLEWTGIIFGDAKTYYASWAKGRFTISKTATTVDLKITSLTTEDTATYFCVAGTGLWGQGTLVTVSS
VL: AQVLTQTASPVSAAVGSTVTINCQASQSVYNKNRLSWYQQKPGQPPKRLIYSSSTLDSGVPLRFSGSGSGTQFTLTISGVQCDDAATYYCLGSYDCSSADCNAFGGGTEVVVK
notes: Rabbit IgG heavy chain and kappa light chain; Entries as printed seem to include a leader; no cleavage site is stated

binding result [8]: binds
B5: 20H1/20K3 rabbit anti-PKCg monoclonal antibody clone (antibody, V domains shown)
VH: QSVEESGGRLVTPGTPLTLTCTVSGIDLSSNAMNWVRQAPGKGLEWIGIIGFSGSTNYASWAKGRFTISKTSTTVDLKITSPTTEDTATYFCARGGLNIGMNLWGQGTLVTVSS
VL: AQVLTQTPSPVSAAVGGTVPISCQSSQSVYDNNWLAWYQQKPGQPPKLLVYYASTLASGVPSRFKGSGSGTQFTLTINDLECDDAATYYCAGGYGDTNGGASSFGGGTEVVVK
notes: as for B3

From patent publication US20220057411A1 (PERSEUS SCIENCE GROUP, published 2022)
